Experiment [1] has as its target human Ang-2 H375Q (human) (UniProt O15123). In words: ELISA. In general terms: In an ELISA, binding on a coated surface is turned into a signal by an enzyme label.
In experiment [2] the target is Human Ang-1/2 BsmI chimera (human). In words: ELISA.
The target in experiment [3] is human Ang-2 V345M (human) (UniProt O15123). The experiment can be described thus: ELISA.
Experiment [4] addresses human Ang-2 mutated at positions 365 and 367 (human) (UniProt O15123). In words: ELISA.
Experiment [5] addresses recombinant human Angiopoietin-2 (human) (UniProt O15123). In words: Biacore, mAb captured; kd held constant in fit. On the technique in general: In SPR one partner is held on a chip, and binding of the other changes the refractive index at the surface.
In experiment [6] the target is Mouse/Human Ang-2 StuI chimera (mouse; human) (UniProt O35608). In words: ELISA.
Sequence of Mouse/Human Ang-2 StuI chimera (mouse; human) (O35608 other isoform, or with tags, fused parts or gaps mutant): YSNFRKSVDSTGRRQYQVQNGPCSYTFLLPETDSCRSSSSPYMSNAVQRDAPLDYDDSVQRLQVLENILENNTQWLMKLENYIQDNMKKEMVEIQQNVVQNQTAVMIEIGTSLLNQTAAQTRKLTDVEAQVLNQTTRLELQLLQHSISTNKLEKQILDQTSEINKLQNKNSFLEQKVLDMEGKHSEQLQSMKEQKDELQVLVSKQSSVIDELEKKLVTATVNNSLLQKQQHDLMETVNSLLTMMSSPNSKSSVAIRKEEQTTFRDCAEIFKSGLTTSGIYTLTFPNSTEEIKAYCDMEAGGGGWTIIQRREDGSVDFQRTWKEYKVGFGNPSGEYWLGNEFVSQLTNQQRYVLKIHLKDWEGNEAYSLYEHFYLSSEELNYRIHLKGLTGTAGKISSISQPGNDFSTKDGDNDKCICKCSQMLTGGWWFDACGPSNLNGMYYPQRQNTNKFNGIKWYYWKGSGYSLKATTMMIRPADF
The target in experiment [7] is Mouse/Human chimeric Ang-2 with human StuI-TfiI fragment (residues 310-400) (mouse with human residues 310-400) (UniProt O35608). The experiment can be described thus: ELISA.
Sequence of Mouse/Human chimeric Ang-2 with human StuI-TfiI fragment (residues 310-400) (mouse with human residues 310-400) (O35608 other isoform, or with tags, fused parts or gaps mutant limits assumed): as the sequence (O35608 other isoform, or with tags, fused parts or gaps mutant) above, with K386T, G393A, N403S, G410S, T424S, M440Q, R445K counted along it
In the next experiment the target is human Ang-2443 (human) (UniProt O15123). The experiment can be described thus: ELISA.
Sequence of human Ang-2443 (human) (O15123 other isoform, or with tags, fused parts or gaps): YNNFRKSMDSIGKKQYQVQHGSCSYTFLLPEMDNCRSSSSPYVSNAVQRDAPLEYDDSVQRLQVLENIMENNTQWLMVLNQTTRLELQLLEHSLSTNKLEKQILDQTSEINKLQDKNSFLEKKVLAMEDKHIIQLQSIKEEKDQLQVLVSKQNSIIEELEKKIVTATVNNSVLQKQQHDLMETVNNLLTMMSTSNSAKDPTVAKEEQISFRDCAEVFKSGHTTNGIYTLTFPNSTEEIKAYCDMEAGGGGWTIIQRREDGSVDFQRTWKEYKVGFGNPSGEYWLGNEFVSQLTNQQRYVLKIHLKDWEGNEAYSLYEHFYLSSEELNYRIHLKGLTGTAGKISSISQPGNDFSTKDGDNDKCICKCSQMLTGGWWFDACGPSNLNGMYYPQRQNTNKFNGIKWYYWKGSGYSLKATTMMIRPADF
Experiment [8] deals with recombinant human Angiopoietin-2 (human) (UniProt O15123). In words: inhibition of rhAng-2 binding to its receptor.
Sequence of recombinant human Angiopoietin-2 (human) (O15123 19-496 limits assumed): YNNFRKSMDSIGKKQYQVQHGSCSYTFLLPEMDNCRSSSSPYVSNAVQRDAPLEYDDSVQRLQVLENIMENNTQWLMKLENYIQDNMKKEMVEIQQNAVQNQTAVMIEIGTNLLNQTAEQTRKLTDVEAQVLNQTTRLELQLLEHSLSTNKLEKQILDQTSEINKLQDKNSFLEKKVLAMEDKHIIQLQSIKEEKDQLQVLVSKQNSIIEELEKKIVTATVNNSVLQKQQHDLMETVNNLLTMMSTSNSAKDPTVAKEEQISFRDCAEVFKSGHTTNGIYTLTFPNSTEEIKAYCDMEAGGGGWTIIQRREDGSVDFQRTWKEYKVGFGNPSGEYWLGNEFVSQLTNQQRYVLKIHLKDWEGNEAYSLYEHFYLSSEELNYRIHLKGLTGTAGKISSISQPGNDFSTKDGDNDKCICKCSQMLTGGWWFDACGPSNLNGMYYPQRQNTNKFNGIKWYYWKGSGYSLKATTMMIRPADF
Experiment [9] has the same target. In words: Biacore, mAb captured.
The target in experiment [10] is mouse Angiopoietin-2 (mouse) (UniProt O35608). In words: ELISA titration, mouse Ang-2 supernatant coated.
Sequence of mouse Angiopoietin-2 (mouse) (O35608 19-496 S348N/G411A limits assumed): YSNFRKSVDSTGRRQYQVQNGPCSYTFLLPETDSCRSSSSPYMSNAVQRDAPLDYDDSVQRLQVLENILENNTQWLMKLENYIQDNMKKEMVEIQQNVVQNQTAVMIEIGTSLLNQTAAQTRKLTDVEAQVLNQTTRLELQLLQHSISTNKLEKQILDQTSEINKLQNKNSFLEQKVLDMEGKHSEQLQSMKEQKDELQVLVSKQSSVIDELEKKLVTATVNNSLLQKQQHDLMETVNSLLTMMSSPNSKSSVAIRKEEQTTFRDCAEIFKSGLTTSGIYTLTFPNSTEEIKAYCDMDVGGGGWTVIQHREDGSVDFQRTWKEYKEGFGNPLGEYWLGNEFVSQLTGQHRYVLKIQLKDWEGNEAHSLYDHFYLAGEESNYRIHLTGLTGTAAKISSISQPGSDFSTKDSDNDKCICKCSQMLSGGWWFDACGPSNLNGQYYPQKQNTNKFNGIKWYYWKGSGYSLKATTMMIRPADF
The target is the same in experiment [11]. In words: ELISA.

Numbering of substitutions follows the chain as printed.

Sequence of human Ang-2 H375Q (human) (O15123 19-496, stated change not applied): as the sequence (O15123 19-496 limits assumed) above
Sequence of human Ang-2 V345M (human) (O15123 19-496, stated change not applied): as the sequence (O15123 19-496 limits assumed) above
Sequence of human Ang-2 mutated at positions 365 and 367 (human) (O15123 19-496, change not shown): as the sequence (O15123 19-496 limits assumed) above

B1: mAb 5.39.1 (antibody, V domains shown)
VH: QVQLVQSGAEVTKPGASVKVSCKASGYTFTAYHMYWVRQAPGQGLEWMGWINPNSGGTNYAQKFQGRVTMTRDTSISTAYMELSRLRSDDSPVYYCARDQGIAAAGPFDYWGQGTLVTVSS
VL: EIVMTQSPATLSVSPGDRATLSCRASQSVSSNFAWYQQKPGQAPRLLIYGSSTRATGIPARFSGSGSGTEFTLTISSLQSEDFAVYYCQQYHYWWTFGQGTKVEFKR
Take B1: the percent binding compared to human Ang-2 in experiment [1], in [2], in experiment [3] and in [4] was 100% in each case.

B2: mAb 5.86.1 (antibody, V domains shown)
VH: B1 VH with T12K, A31G, M48L, S91T, P92A, A97V, G112C
VL: DIRMTQSPSSLSASVGDRVTITCRASQRISTYLNWYQQKPGKAPKFLIYAASSLQSGVPSRFSGSGSGTDFTLTISSLQPEDFATYYCQQSYTTPFTFGPGTKVDIKR
Consider B2, for which the percent binding compared to human Ang-2 in experiment [1], in [2], in experiment [3] and in experiment [4] was 100% each time.

B3: mAb 5.62.1 (antibody, V domains shown)
VH: EVQLVESGGGLVQPGGSLRLSCAASGFTFSSYWMSWVRQAPGKGLEWVANIKQDGSEKYYVDSVKGRFTISRDNAKNSLYLQMNSLRAEDTAVYYCARDPGIAVAGPFDYWGQGTLVTVSS
VL: B1 VL with D17E, F33L, S51A, S52F, H92N, Y93H, E104G, F105I
In the case of B3, the percent binding compared to human Ang-2 in experiment [1], in experiment [2], in experiment [3] and in [4] was 100% each time.

B4: mAb 3.3.2 (antibody, V domains shown)
VH: B3 VH with A24V, P100Q
VL: B1 VL with D17E, S28T, N32D, F33L, S51A, T53I, Y87S, H92Y, Y93N, F105I
Consider B4, for which the percent binding compared to human Ang-2 in experiment [1], in experiment [2], in experiment [3] and in experiment [4] was 100% in each case.

B5: mAb 5.88.3 (antibody, V domains shown)
VH: EVQMVESGGGLVQPGGSLRLSCAASGFTLRSYWMSWVRQAPGKGLEWVANIKEDGSEKYHVDSVKGRFTISRDNAENSLFLQMSSLRAEDTAVYYCARDMEASAGLFDYWGQGTLVTVSS
VL: B1 VL with D17E, T20I, V29I, F33L, S51A, H92N, F105I
As for B5, the percent binding compared to human Ang-2 in experiment [1], in experiment [2], in [3] and in [4] was 100% each time.

B6: mAb 6.3.1 (antibody, V domains shown)
VH: QVQLVQSGAEVKKPGASVKVSCKASGYTFTGYFMHWVPQAPGQGLEWMGWINPNSGGTNYAQNFQGRVTMTRDTSISTAYMELSRLRSDDTPVYYCARDPWQNWNSYFDYWGQGTLVTVSS
VL: DIQMTQSPSSLSASVGDRVTITCRASQSIRSYLNWYQQKPGKAPKVLIYAASSLQSGVPSRFSGSGSGTDFTLTISSLQPEDFATYYCQQSYSTLCSFGQGTKLEIKR
For B6, the percent binding compared to human Ang-2 in [1], in experiment [2], in [3] and in [4] was 100% in each case.

B7: mAb 3.28.1 (antibody, part only; not given: light chain, V domains shown, part only)
VH: EVQLVESGGGLVQPGGSLRLSCAASGFTFSSSWMSWVRQAPGKGLEWVANIKQDGSDKYYVDSVKGRFTISRDNAKNSLYLQMNSLRAEDTAVYYCVRDKGSGWFDYWGQGTLVTVSSA
For orientation: koff means the first-order rate constant of dissociation. One may read the Kd as a measure of binding affinity in units of concentration. As usually defined, the kon is the rate constant with which the complex forms. B7: the koff in [5] is 1e-05 s⁻¹. In addition, the percent binding compared to human Ang-2 in experiment [6] came to 100%; in experiment [1] it was 100%; in [2], 100%; in experiment [3] it was 100%; in experiment [7], 31%; in experiment [4], 100%. In the experiment with human Ang-2443 (human), this molecule yielded a percent binding compared to human Ang-2 of 100%. Moreover, the OD650 in inibition assay in experiment [8] came out at 0.0588 OD650. In addition, the Kd in experiment [9] is 0.037 nM. The kon in experiment [9] worked out at 270000 M⁻¹ s⁻¹.

B8: mAb 5.28.1 (antibody, V domains shown)
VH: EVQLVESGGIVVQPGGSLRLSCAASGFTFDDYTMHWVRQTPGKGLEWVSLISWDGGSTYYADSVKGRFTISRDNSKNSLYLQMNSLRTEDTALYYCAKDIDIAVAGTGFDHWGQGTLVTVSS
VL: EIVMTQSPATLSVSPGERATLSCRASQSVTSNLAWYQQKPGQAPRLLIYGALIRATGIPARFSGSGSGTEFTLTISSLQSEDFAVYYCQQYNNWPFTFGPGTKVDIKR
For B8, the percent binding compared to human Ang-2 in experiment [1], in [2], in experiment [3] and in experiment [4] was 100% each time.

B9: mAb 5.2.1 (antibody, part only; not given: light chain, V domains shown, part only)
VH: QVQLVESGGGVVQPGRSLRLSCAASGFTFSSYGMHWVRQAPGKGLEWVAVIWFDGFNKYYADSVKGRFTISRDNSKNTLYLQMNSLRAEDTAVYHCARDRGYSGYDHYYGMDVWGQGTTVTVSSA
B9: the antibody concentration at saturation in experiment [10] was determined as 10 µg/mL. In addition, in experiment [5], the dissociation rate constant (koff) came to 1e-05 s⁻¹. Also, the percent binding compared to human Ang-2 in experiment [6], in experiment [1], in experiment [2], in experiment [3], in [7] and in experiment [4] was 100% each time. The same molecule returned a percent binding compared to human Ang-2 with human Ang-2443 (human) of 100%. Also, in experiment [11], the percent of their immunoreactivity on human Ang-2 was determined as 100%. In addition, in [8], the OD650 in inibition assay is 0.069 OD650. The dissociation constant Kd in experiment [9] is 0.062 nM. The on-rate (kon) in experiment [9] was 160000 M⁻¹ s⁻¹.

For the origin of these results see patent US20060246071A1.
